Here are results for three substances from patent US20240115742A1, “FLUORINATED FIBERS FOR MULTIMODAL 1H AND 19F MRI, ULTRASOUND, FLUORESCENCE DETECTION AND CONFORMATIONAL AND TEMPERATURE DETECTION BY 19F MRS” (New York University, priority 2022, published 2024).

Several values for one entry are separate records, joined by “and”; a condition that tells them apart may be missing. Equal entries are not always repeated. Where two headings read alike, the source gives them in different places. Square brackets hold non-standard residues; d marks the D form. Ends that are not written are not given here. LTF = trifluoroleucine

The subject of series [1] is type 2 mouse diabetic wound. Description: Diabetic mouse wound model. The class given is in vivo. As to conditions: vs exosomes alone and untreated mice.
A short description of series [2]: Small angle X-ray scattering of Q5. It counts as physicochemical. The method, then:
Small Angle X-ray Scattering (SAXS). SAXS was employed to measure interparticle interactions, structure, and shape of Q5 since it was capable of gelation in the instrument holder within 24 h. SAXS experiments were performed at the National Synchrotron Light Source-II (NSLS-II) Beamline 16-ID (LiX) at Brookhaven National Laboratory.
Small Angle X-ray Scattering (SAXS). All measurements were taken within 12 h of concentration of the protein from the dialysis bag. To study Q5 as an isolated particle, 150 μM (˜1 mg/mL) protein and dialysis buffer (50 mM Tris 500 mM NaCl pH 8.0) was loaded into a flow cell and measured in the q range […] to 3.19 Å^−1. The Q5 protein transition from solution to hydrogel was measured by incubation at 4° C. of 3 mM of Q5 protein in an eight-slot holder capable of loading 30 μL of each sample. Between measurements, the holder was returned for incubation at 4° C. Independent slots were used to load six samples of the Q5 hydrogel in solution including one for the empty cell and one for the dialysis buffer. Each slot was measured once incrementally over a 24 h incubation window to negate the impact of radiation (except for the measurement made at 24 h which was measured from the previous time point sample due to sample error in the last slot holder, however, a negligible impact of radiation was observed). Similarly, Q5 hydrogel measurements made at 3 mM and 4° C. were measured in the q range 0.005 Å^−1 to 3.19 Å^−1. Kratky plots were calculated by Guinier analysis of Rg and I(0) values. Flory exponents were calculated using MFF fit by Sosnick group online tool. Pair distance distribution function, P(r), was calculated using primus (ATSAS software).

A further series can be described thus: Cryo-EM of Q5 gel. It counts as physicochemical. The method, then:
Cryo-Electron Microscopy. Lacey Carbon 300 mesh copper grids (Ted Pella) were used for cryo-EM imaging on FEI TALOS F200C with Ceta 16M camera at 200 kV accelerating voltage. PELCO easiGlow™ Glow Discharge Cleaning System was also used for the plasma treatment of the grids.
Cryo-EM. Cryo-EM samples were prepared with the Vitrobot system (Thermo Fisher Scientific) which can help vitrify a thin solution layer at low temperature. Approximately 4 μl of sample solution was applied to the grids in the chamber of Vitrobot at 4° C. and 100% humidity. The sample solution was incubated for 10 s and then the grid was blotted three times. Blotting lasted 1 s for each time. […] Then, the grid was transferred into liquid nitrogen. The cryo-EM holder was kept at −175° C. to prevent solvent crystallization during the imaging. Coarse-grained Model Details. Each bond is defined by Equation 10: […]

The conditions of series [3]: previous studies, cited from earlier work.
The conditions of series [4]: Q as previously described; cited from earlier work.
For series [5] the following is noted: 10 Hz, Q as reported previously; cited from earlier work.
For series [6] the following is noted: measured in Q previously; cited from earlier work.
For series [7] the following is noted: Q, previous results; cited from earlier work.
Series [8] can be described thus: Linear regression model predictions. The conditions noted are these: from 181.7 nm fiber diameter. The method, then:
A linear model was previously established correlating the increase in thermostability upon binding CCM, and the loss of ordered structure as measured by ATR-FTIR. Based on this model, a 14.5% loss of structure is predicted, which translates to an error of just 0.4% from a measured structure loss of 14.1%, within the root mean squared error (RMSE) of the model, which is calculated here to be 0.9%. […] While CCM-binding imposes a negative impact on the ordered structure of the coiled-coil, a loss of secondary structure measured by ATR-FTIR has been associated with a positive interaction of CCM in the hydrophobic pore, which helps stabilize the protein and increase thermostability. Thus, the fluorination of Q2LTF results in a strengthened interaction with CCM.
Binding of CCM causes fiber thickening of Q2LTF (FIG. 34d, 44), consistent with recent analysis of supramolecular coiled-coil fibers. Fiber-thickening by CCM has been established for collagen activity as well as coiled-coil fibers and is explained by increased solvation of polar groups and burying of the hydrophobic residues leading to increased surface activity. […] While this relationship was assessed for non-fluorinated CCM fibers, the predicted fiber diameter is […] based on a 181.7 nm Q2LTF fiber diameter translating to an error of […], just outside our model's root mean squared error (RMSE) of […] (FIG. 45). […]

Series [9] in a line: Curcumin binding by fluorescence spectroscopy. The conditions noted are these: 15 μM protein, 1% v/v DMSO. The method, then:
Drug Binding. Protein variants were bound to curcumin (CCM) in increasing CCM:protein ratios at 1:1 to 10:1. Protein was diluted to a final concentration of 15 μM before CCM solubilized in DMSO was added to the protein sample at a final 1% v/v DMSO. Samples were incubated on a thermomixer for 30 min at 300 rpm in the dark at 4° C. Samples were then removed and 300 μL of each sample was added to a 96-well solid black plate. Protein variants were excited at 420 nm and emission was read at 520 nm using a BioTek Synergy H1 microplate reader at RT. The baseline spectra of CCM, at 15-150 μM in 50 mM PB pH 4.0 containing 1% v/v DMSO, was subtracted from the fluorescence intensities of the protein-CCM at corresponding concentrations. Resulting normalized relative fluorescence intensities were analyzed using Specific binding kinetics in GraphPad Prism (GraphPad Software).
Curcumin Binding. CCM was bound to Q2LTF. […] Samples were loaded onto a 96-well black plate and excited at 420 nm and emission was read at 520 nm using a BioTek Synergy H1 microplate reader at room temperature (RT). Normalized relative fluorescence intensities were calculated and analyzed in Graphpad Prism (GraphPad Software). Binding affinity was calculated using the specific binding kinetics equation.

Regarding “Q5: Q hydrogel variant from Rosetta Monte Carlo search, SEQ ID NO: 14 (MRGSHHHHHHGSIEGRVKEITFIKKTIEQIAEEMKEINKAIHDIRHALENISKK) [Protein Q5]”, in [1], the diabetic wound closure result is “faster time to closure”. Moreover, in series [2] (150 μM, 0 h at 4 °C), the “P(r) distribution centre” value turned out to be 22.5 Å. In addition, the “average step-size increase of P(r) peaks” value in series [2] (3 mM, 24 h at 4 °C) is listed as 39.1±4.2 Å. This substance had a cylinder length in series [2] (assuming cylindrical shape) of 6.8±0.4 nm. For the same substance, the “fiber diameter (cryo-EM)” value in the series “Cryo-EM of Q5 gel” (0.5 mM, n=100) came out at 3.4±0.7 nm; in the series “Cryo-EM of Q5 gel” (1 mM, n=100) it was 5.6±2.1 nm. In addition, the “fiber spacing by FFT” value in “Cryo-EM of Q5 gel” (2 mM) is reported as 14-17 nm. Further, the “crosslinked fiber diameter (cryo-EM)” value in the series “Cryo-EM of Q5 gel” (2 mM, n=100) is on record as 5.8±1.5 nm.

“Q: rationally designed pentameric coiled-coil derived from C, SEQ ID NO: 23 (MRGSHHHHHHGSIEGRVKEITFLKNTAPQMLRELQETNAALQDVRELLRQQSKL) [reference compound]”: the melting temperature in [3] (50 mM Na2HPO4 pH 4.0) is 55.3 °C; in series [3] (50 mM Na2HPO4 pH 10.0), 46.4 °C. Besides, in [4], the UCST was ~16 °C and 16.2 °C. The “storage modulus G′” value in series [5] was 50.4 Pa and 50 Pa. For the same substance, in series [6], the protofibril diameter was 3.5±0.5 nm. In addition, the “α-helical secondary structure upon gelation” value in [7] is 52%.

Turning to “Q2LTF: protein-engineered fluorinated coiled-coil fiber, Q2 with trifluoroleucine, SEQ ID NO: 20 (MRGSHHHHHHGSIEGRVKE[LTF][LTF]F[LTF]KKTAEQM[LTF]EE[LTF]KETNKA[LTF]HDVRH[LTF][LTF]ENQSK[LTF]; ends and bridges not checked) [Protein Q2LTF]”, the “predicted CCM-thickened fiber diameter” value in series [8] is reported as 12.9 μm. Besides, the Kd in [9] is 0.06 μM:μM [protein:CCM].
